# Measured values taken from article PMC9812381 (Science Advances, 2023).
# B1: zinc finger RING-box protein 2 (RBX2), residues 1-113 (natural protein)
# chain: MADVEDGEETCALASHSGSSGSKSGGDKMFSLKKWNAVAMWSWDVECDTCAICRVQVMDACLRCQAENKQEDCVVVWGECNHSFHNCCMSLWVKQNNRCPLCQQDWVVQRIGK
# notes: source: E. coli BL21 (DE3), coexpressed with CUL5, purified (Ni-NTA, SEC)
# Biological target: T1, Cullin-5 (CUL5), residues 12-780 (human, UniProt Q93034 12-780)
# T1 construct: source: E. coli BL21 (DE3), coexpressed with RBX2, purified (Ni-NTA, SEC); not shown: GB1, N-terminal, cleaved
# T1 sequence: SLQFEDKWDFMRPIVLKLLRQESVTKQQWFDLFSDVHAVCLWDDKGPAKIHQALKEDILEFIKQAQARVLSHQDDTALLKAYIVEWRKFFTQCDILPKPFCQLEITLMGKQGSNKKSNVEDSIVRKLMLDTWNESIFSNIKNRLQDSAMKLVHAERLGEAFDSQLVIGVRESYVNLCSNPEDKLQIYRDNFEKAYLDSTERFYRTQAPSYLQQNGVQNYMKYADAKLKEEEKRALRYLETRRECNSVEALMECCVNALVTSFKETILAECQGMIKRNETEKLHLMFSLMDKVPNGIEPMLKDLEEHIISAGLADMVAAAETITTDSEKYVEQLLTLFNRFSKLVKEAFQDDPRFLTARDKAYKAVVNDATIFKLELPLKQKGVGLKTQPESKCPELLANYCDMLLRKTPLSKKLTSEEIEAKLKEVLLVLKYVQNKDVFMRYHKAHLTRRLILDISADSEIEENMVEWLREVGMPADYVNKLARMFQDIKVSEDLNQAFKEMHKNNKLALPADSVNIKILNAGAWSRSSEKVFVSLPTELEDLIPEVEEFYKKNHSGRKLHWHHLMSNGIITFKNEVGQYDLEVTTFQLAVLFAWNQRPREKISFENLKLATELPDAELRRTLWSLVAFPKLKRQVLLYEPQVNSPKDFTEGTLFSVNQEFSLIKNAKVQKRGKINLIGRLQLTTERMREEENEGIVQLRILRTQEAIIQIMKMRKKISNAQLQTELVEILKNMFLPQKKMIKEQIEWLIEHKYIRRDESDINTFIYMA
# Assay: cryo-EM structure
# Conditions: both partners purified
binder,measurement,value
B1,binding result,binds
